System: not listed separately
Test: TTA-ADH coupled assay, substrate scope of TTAs on aromatic aldehydes
Format: biochemical
Details: TTA-ADH coupled assay
Description: (§1) High-throughput screening of purified TTAs was performed with a TTA-ADH coupled assay using purified TTA and commercially available alcohol dehydrogenase from S. cerevisiae purchased from MilliporeSigma. Aldehyde stocks were prepared in 50-100 mM solutions in DMSO or acetonitrile. Reaction mixtures were prepared in a 96-well plate with 100 μL of 100 mM phosphate buffer pH 7.5, 0.5 mM NADH, 0.4 mM PLP, 15 mM MgCl2, and 100 mM L-Thr with the addition of 0.25 mM to 1 mM aldehyde depending on the background absorbance at 340 nm (Table 4), 10 U ScADH, and 0.25 μM purified TTA unless otherwise specified. Reactions were initiated with the addition of enzyme. […] The following controls were included for every assay: reaction mixture without aldehyde, without TTA, and without enzyme (TTA or ADH). Rates were calculated by identifying the linear region at the beginning of the kinetic run and converting the depletion in absorbance to the depletion of mM NADH using an NADH standard curve.
We specifically selected substrates with ring substituents with different electron withdrawing properties (1, 3, 6, 7, 8), substituent size (12), and aldehyde chain length (15) to compare the activity of the putative TTAs to ObiH. We were also encouraged by the activity of PbTTA and KaTTA on vanillin and protocatechualdehyde which are substrates that would form products like commercially available therapeutic, Droxidopa (FIG. 18).
To explore the possibility that DbTTA and TmTTA are TTAs active on other related aldehydes, we sought to examine their activity with L-Thr and aldehyde substrates with different ring substituent position (2), bulkier, hydrophobic chemistry (10), and aldehyde chain length (14) using the TTA-ADH coupled assay.

| Molecule | TTA activity with L-Thr and aldehydes 2, 10, 14 |
| --- | --- |
| TmTTA: putative TTA, SEQ ID NO: 36, Thermocladium modestius (protein, listed as Thermocladium modestius) MREEEAIAALSKLRAIMDRHNNWRRRETINLIPSENVMSPLAEYFYLNDMMGRYAEGTIGKRYYQGVSLVDEAEQMLVDLMSSLFSSRFTDVRPISGTVANMAVYHSVAGLGEKIASLPTAAGGHISHNETGAPKAFGLRVSYLPWSQENFNVDVDAARRLIAEERPKLVLLGASLYLFPHPIKELADAAHEVGAVLMHDSAHVLGLIAGHQFPNPLELGADIMTSSTHKTFPGPQGGVIFTTREDLFKEIQRSVFPVMTSNYHLHRYASTIVTAIEMSTYGDEYAATVRSNAKALAEQLHANGLPVVAEEHGFTATHQVAMDVSKFGGGGPIAKALEDANIIVNKNMLPWDKSPVKPSGIRMGVQEMTRMGMGKGEMAAVAELIAKVVIKGVEPSKVKPEVVELRRGFTKVRYGFDLSTLGLNCPCLPLL | Neither of these proteins appeared to have any TTA activity |
| DbTTA: putative TTA, SEQ ID NO: 40, Deltaproteobacteria bacterium (protein, listed as Deltaproteobacteria bacterium) LTNNRELMDRIGYNLSQGLVSSQHTASLVALFIALHEARLTGKAFAKQVVENARTLASRLAALGVPVLARSDGQFTDNHHFFINLTGVASAPHQMERLLRAHLVVQRGMPFRNVDALRVGVQEVTRRGYGPGEMAQLAEWIASIVIGGADPEVVAPAVQAMAKRFDTIYYTGETVDGKLDLPEIAAPSAKGRWVDYRHLGNDFAMDDTEFSEIRALGAAAGAFPNQTDSTGNVSLRSGARVFVSSSGSYIKHLADGQVVELDAVDPSGELIDYHGAALPSSESLMHFLVYQNVPAGAVVHTHYLLTNQEAADFDVAVIAPQEYASIALARAVAEASKRSRIVYIQKHGLVFWGTDTADCLSQVHNFIHNRPNRRAAEAVYAS | Neither of these proteins appeared to have any TTA activity |

Same assay, conditions: purified with SUMO tag

| Molecule | TTA activity on aromatic aldehydes |
| --- | --- |
| SNTTA: putative TTA, SEQ ID NO: 38, Streptomyces sp. NRRL 30471 (protein, Streptomyces sp. NRRL 30471) MTSSDDCAASRTAPVAGRAELLALLGEIEKEQRINEAAVNLVPSENRISPWAGAPLRTDFYNRYFFNDSLDPQGWQFRGGEGIGRLEKELALPALRRLGRADHVNIRPVSGMSAMLVVLLGLGGEPGDGVVCVDAETGGHYATGRQIAMLGRRPLPVRVVAGRVDLDALRTALTSCHVPLVYLDLQNSLWELDVAGVAEVIARTSPRTVLHVDCSHTLGLILGGSHKNPLDLGADTTGGSTHKTFPGPQKGVLFTRDENLSRKIRDAQFFTISSHHFAETLALALAAAEFEHFGAAYSRQVLINARAFAHRLRERGFGVVEGGPQLTDTHQVWVRLPLEESADAFSAQLASLGIRVNVQTELPDIPEPALRLGVSEITLNGGREPAMETLAEIFALVRAGEATKAVDLFQVLPHEMGEPYFFTGLPQEAGLFHG | no TTA activity |

System: ObiH
Test: TTA-ADH coupled assay, ObiH screened on aromatic aldehyde substrates
Format: biochemical, Pseudomonas fluorescens
Details: 0.25-1 mM aldehyde, 100 mM L-Thr, 0.25 μM purified TTA, 30° C.
Description: as §1
To expand our understanding of the TTA enzyme class, we wanted a high-throughput method for rapid screening of multiple enzymes and candidate aldehyde substrates. We began by analyzing a previously reported coupled enzyme assay (FIG. 2a) based on the addition of alcohol dehydrogenase (ADH), which consumes NADH to reduce the co-product acetaldehyde in a manner that can be monitored at 340 nm. Unfortunately, this coupled assay for TTA activity suffers from false positives and confounding variables which we sought to address. […] Second, the characterized TTAs are known to catalyze the decomposition of L-Thr in the absence of an aldehyde substrate, which is an undesired reaction that also generates an acetaldehyde co-product. Another limitation of the TTA-ADH coupled assay is that many of the aromatic aldehyde candidate substrates absorb at the same measurement wavelength (Table 4). Thus, we minimized the impact of the false positives, spectral overlap, and other confounding variables by tuning enzyme and aldehyde concentrations and monitoring the undesired reactions with two controls: (1) lacking aldehyde substrate (“L-Thr”) and (2) lacking TTA (“no TTA”) where only the ADH and substrate are present. Then, we validated the TTA-ADH coupled assay by performing HPLC analysis, using the chemically synthesized β-OH-nsAA standard for the assumed product from 3, over a time course where we observed that the addition of the ScADH improves reaction rates three-fold. As previously reported by others, we were also able to improve β-OH-nsAAs yields when using the ScADH coupled to a co-factor regeneration system. As the last step of verification, we screened the TTA-ADH coupled assay with ObiH before and after photo-treatment, we observed no differences in reaction rate and continued to assay the TTAs without photo-treatment.
Upon assay validation, we hypothesized that we could rapidly probe the activity of ObiH on diverse aldehydes to expand the potential chemical handles of β-OH-nsAAs. We successfully screened ObiH against 16 unique substrates in a single experiment (FIGS. 2b,c). […] Our screen included nine substrates not previously tested with ObiH to our knowledge; activity on seven of these substrates was confirmed with new peak formation via HPLC or LC-MS (FIGS. 3-14). The new substrates include aldehydes that contain amines, conjugatable handles, or larger hydrophobic groups to improve the chemical diversification of β-OH-nsAA products. Our result supported the known general trend that aldehydes containing electron-withdrawing ring substituents are the preferred substrates of ObiH. As expected, the amine-aldehydes were very poor substrates for ObiH, which we hypothesize is because of the strong electron-donating potential of amines. Additionally, one amine-containing substrate (5) absorbed at 340 nm, so it was only tested at low concentrations of 0.25 mM aldehyde (Table 4). […]

| Molecule | activity of ObiH on aldehyde substrate (initial rate, TTA-ADH coupled assay) |
| --- | --- |
| O=Cc1ccccc1[N+](=O)[O-] [Aldehyde 3, 2-nitro-benzaldehyde] | validated the activity |
| O=Cc1ccc(C=O)cc1 [Aldehyde 7, terephthalaldehyde] | activity |
| COc1ccc(C=O)cc1 [Aldehyde 9, 4-methoxybenzaldehyde] | some activity |
| O=Cc1ccc(-c2ccccc2)cc1 [Aldehyde 10, 4-biphenylcarboxaldehyde] | some activity |
| O=Cc1ccc2ccccc2c1 [Aldehyde 12, 2-napthalaldehyde] | some activity |
| O=Cc1ccc(B(O)O)cc1 [Aldehyde 13, 4-boronobenzaldehyde] | activity |
| O=CCc1ccc([N+](=O)[O-])cc1 [Aldehyde 15, 4-nitro-phenylacetaldehyde] | validated the activity |

System: not listed separately
Test: In vitro assay over 20 h with HPLC analysis (amino acid substrate specificity, diastereomeric excess)
Format: biochemical
Details: not given
Description: Metabolites of interest were quantified via high-performance liquid chromatography (HPLC) using an Agilent 1260 Infinity model equipped with a Zorbax Eclipse Plus-C18 column. To quantify aldehyde and β-OH-nsAAs, an initial mobile phase of solvent A/B=95/5 was used (solvent A, water+0.1% TFA; solvent B, acetonitrile+0.1% TFA) and maintained for 5 min. A gradient elution was performed (A/B) as follows: gradient from 95/5 to 50/50 for 5-12 min, gradient from 50/50 to 0/100 for 12-13 min, and gradient from 0/100 to 95/5 for 13-14 min. A flow rate of 1 mL min-1 was maintained, and absorption was monitored at 210, 250 and 280 nm.
We performed an in vitro assay over 20 h using 3 as the aldehyde substrate and either L-Thr, Glycine (Gly), or L-Serine (L-Ser) as the candidate amino acid. Since the TTA-ADH coupled assay is specific to L-Thr, we analyzed TTA activity via HPLC with a chemically synthesized β-OH-nsAA standard for the assumed product from 3.

| Molecule | β-OH-nsAA product formation from 3 and L-Thr |
| --- | --- |
| TmTTA: putative TTA, SEQ ID NO: 36, Thermocladium modestius (protein, listed as Thermocladium modestius) MREEEAIAALSKLRAIMDRHNNWRRRETINLIPSENVMSPLAEYFYLNDMMGRYAEGTIGKRYYQGVSLVDEAEQMLVDLMSSLFSSRFTDVRPISGTVANMAVYHSVAGLGEKIASLPTAAGGHISHNETGAPKAFGLRVSYLPWSQENFNVDVDAARRLIAEERPKLVLLGASLYLFPHPIKELADAAHEVGAVLMHDSAHVLGLIAGHQFPNPLELGADIMTSSTHKTFPGPQGGVIFTTREDLFKEIQRSVFPVMTSNYHLHRYASTIVTAIEMSTYGDEYAATVRSNAKALAEQLHANGLPVVAEEHGFTATHQVAMDVSKFGGGGPIAKALEDANIIVNKNMLPWDKSPVKPSGIRMGVQEMTRMGMGKGEMAAVAELIAKVVIKGVEPSKVKPEVVELRRGFTKVRYGFDLSTLGLNCPCLPLL | no product |
| DbTTA: putative TTA, SEQ ID NO: 40, Deltaproteobacteria bacterium (protein, listed as Deltaproteobacteria bacterium) LTNNRELMDRIGYNLSQGLVSSQHTASLVALFIALHEARLTGKAFAKQVVENARTLASRLAALGVPVLARSDGQFTDNHHFFINLTGVASAPHQMERLLRAHLVVQRGMPFRNVDALRVGVQEVTRRGYGPGEMAQLAEWIASIVIGGADPEVVAPAVQAMAKRFDTIYYTGETVDGKLDLPEIAAPSAKGRWVDYRHLGNDFAMDDTEFSEIRALGAAAGAFPNQTDSTGNVSLRSGARVFVSSSGSYIKHLADGQVVELDAVDPSGELIDYHGAALPSSESLMHFLVYQNVPAGAVVHTHYLLTNQEAADFDVAVIAPQEYASIALARAVAEASKRSRIVYIQKHGLVFWGTDTADCLSQVHNFIHNRPNRRAAEAVYAS | no product |
| NoTTA: putative TTA, SEQ ID NO: 39, Nocardia otitidiscaviarum (protein, listed as Nocardia otitidiscaviarum) MNTFDILEQLARYEVGTSRRLHLIASENPLDSDTRVPYMLAGTLARYAFGEPGQPNWAWPGRETLIDLEADTAAALGALLGADHVNLRPTSGLSAMTVALSALAEHAGDRATVLSLAESDGGHGSTGFMARRFGLDWQRMPADPRTGVVDLDALARQARSARGPLVLYLDAFMARFPFDLTGIRGAVGDSALIHYDGSHPLGLIAGGRFQNPLAEGADSLGGSVHKTWPGPVGKGIIATNDSALASRFDTHAAGWISHHHPADLAALALSTAWMEQHAGDYATAVIANAVQLADELADGGLSICADDRGATASHQVWVDIAPICPAPVAAQRLYDAGIVVNAIAIPGLAEPGLRLGVQELTRWGLDRDGMTVLTWVLTQLLVHNAATAVVAPQMEALRTGLTLPEDRHGLEGFLRACDPQEVSVA | no product |
| StTTA: TTA, SEQ ID NO: 35, Streptomyces (multi-species), first 36 N-terminal amino acids removed (protein, Streptomyces (multi-species)) GVWAGDRVAQVLERLASDFVLDNTYREQHLSLTASENYPSKLVRMLGAGLQGGFYEFAPPYPAEAGEWAFPDSGANASLVGKLTGIGRQLFEAATFDWRPNGGSVAEQAVLLGTCGRGDGFVHFAHKDGGHFALESLAGAAGVNTYHLPMVDRTLLIDVDRLATLCAEHPEIKLVILDQSFKLRWQPLAQIRAALPEGVFLAYDASHDGALIAGGVLPQPTLLGADAVHGNTHKTIAGPQKAYIAFRDAEHPKLRAVSDWVCPQMQSNSHAELIAPMYVALSEVALYGHAYARQILANAQALAHGLHEEGVRVSGESFGFTETHQVHVVTGSAADALRLSLGELAQAGIRTTNIEVPGANGLHGLRLGVQAMTRRGLREPQMREVARLVAKVVLRRAEPAAVRAEVADLLQHHPLDQLAYSFDSYVDSPAAARLLGEVFR | active |

Reference: patent US20250215467A1, “L-THREONINE TRANSALDOLASES AND USES THEREOF” (University of Delaware, priority 2022, published 2025)
